Results published in publication PMC9340783, “Development of a fully human anti‐GITR antibody with potent antitumor activity using H2L2 mice” (FEBS Open Bio, 2022).

T1: cynoGITR on 293F‐cynoGITR cells (Macaca fascicularis)
T1 construct: also called 293F‐cGITR
T1 chain: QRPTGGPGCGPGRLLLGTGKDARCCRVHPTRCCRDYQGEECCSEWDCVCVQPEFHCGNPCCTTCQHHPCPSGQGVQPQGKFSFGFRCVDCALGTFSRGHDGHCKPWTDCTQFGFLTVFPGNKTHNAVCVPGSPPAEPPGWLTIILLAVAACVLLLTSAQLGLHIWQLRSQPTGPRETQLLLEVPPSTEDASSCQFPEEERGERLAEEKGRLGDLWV

T2: cynoGITR ECD hFc (Macaca fascicularis)
T2 construct: cynomolgus GITR, extracellular domain, Gln20-Glu155, NCBI XP_005545180.1; also called cynoGITR protein; cGITR; source: FreeStyle 293F, transiently transfected, purified by protein A
T2 chain: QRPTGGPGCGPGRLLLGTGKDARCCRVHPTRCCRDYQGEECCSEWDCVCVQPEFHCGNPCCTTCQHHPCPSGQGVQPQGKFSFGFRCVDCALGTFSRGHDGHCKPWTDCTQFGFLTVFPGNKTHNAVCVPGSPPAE


Tests used:
[1] = molecular target: T3, human GITR on 293F‐hGITR cells (Homo sapiens (Human)., UniProt Q9Y5U5-1); assay: cell-based or functional assay
[2] = molecular target: T3, human GITR on 293F‐hGITR cells; assay: flow cytometry on cells; 293F‐hGITR or 293F‐cynoGITR cells incubated with antibodies at 4 °C for 1 h, fluorescent anti-rat/human secondary antibody; EC50 of MFI curve; conditions: one partner purified
[3] = molecular target: T1, cynoGITR on 293F‐cynoGITR cells; assay: as above; conditions: one partner purified
hGITR ECD hFc [4] = molecular target: T4, hGITR ECD hFc (Homo sapiens (Human)., UniProt Q9Y5U5, Thr45Ala); assay: ELISA; indirect ELISA; antigen hFc fusion protein coated on 96-well plates (1 μg·mL^−1 overnight at 4 °C in Fig. 3B), antibody added, detected with anti-rat IgG/hIgG-peroxidase antibody; conditions: both partners purified
T4 construct: human GITR (glucocorticoid-induced TNF receptor-related), extracellular domain, Gln26-Glu161 with Thr45Ala, UniProt Q9Y5U5.1; also called human GITR protein; source: FreeStyle 293F, transiently transfected, purified by protein A

cynoGITR ECD hFc = molecular target: T2, cynoGITR ECD hFc; assay: as above; conditions: both partners purified
hGITR ECD hFc [5] = molecular target: T4, hGITR ECD hFc; assay: SPR; Biacore T200; hGITR ECD hFc immobilised on a Series S CM5 chip; antibody 0, 3.125, 6.25, 12.5, 25 and 50 nM; association 180 s, dissociation 600 s; conditions: both partners purified

T3 sequence (Q9Y5U5 26-241): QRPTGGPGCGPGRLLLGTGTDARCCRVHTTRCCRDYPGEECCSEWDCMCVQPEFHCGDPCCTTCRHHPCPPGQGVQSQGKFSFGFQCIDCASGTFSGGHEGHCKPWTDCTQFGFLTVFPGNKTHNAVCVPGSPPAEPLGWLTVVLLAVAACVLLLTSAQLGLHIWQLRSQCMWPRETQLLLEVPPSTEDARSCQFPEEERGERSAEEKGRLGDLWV
T4 sequence (Q9Y5U5 26-161 T45A): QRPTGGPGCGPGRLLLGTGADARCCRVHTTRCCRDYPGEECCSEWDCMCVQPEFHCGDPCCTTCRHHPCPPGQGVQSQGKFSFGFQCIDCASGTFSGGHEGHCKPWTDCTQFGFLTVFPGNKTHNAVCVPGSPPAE

Row | Binder | NF‐ĸB luciferase reporter assay, Crosslinking, EC50 [1] | NF‐ĸB luciferase reporter assay, Crosslinking, Top ratio [1] | NF‐ĸB luciferase reporter assay, No crosslinking, EC50 [1] | NF‐ĸB luciferase reporter assay, No crosslinking, Top ratio [1] | EC50 [2] | EC50 [3] | EC50 (hGITR ECD hFc [4]) | EC50 (cynoGITR ECD hFc) | Kd (hGITR ECD hFc [5])
1 | mAb070 (antibody, V domains shown, as the VH of m14; as the VL of m14; Human-murine chimeric antibody from H2L2 mice: human variable regions, rat constant regions; source: hybridoma cell culture supernatant, purified (Protein A)) VH: QVQLVESGGGVVQPGRSLRLSCAASGFTFSSYGMHWVRQAPGKGLEWVAVIWYETSNKFYVDSVKGRFTISRDNSKNTLYLQMNSLRAEDTAVYYCARYGASSGWYWYFDLWGRGTLVTVSS VL: DIQLTQSPSFLSASVGDRVTITCRASQGISSFLAWYQQKPGKAPKLLIYAASTLQSGVPSRFSGSGSGTEFTLTISSLQPEDFATYCCQQLNSYPFTFGQGTKLEIK | > 0.09 nM | 7 fold | 0.062 nM | 10 fold | 0.358 nM | 0.198 nM | 0.022 nM | 0.025 nM | –
2 | mAb064 (antibody, V domains shown, as the VH of m13; as the VL of m13; Human-murine chimeric antibody from H2L2 mice: human variable regions, rat constant regions; source: hybridoma cell culture supernatant, purified (Protein A)) VH: QVQLVESGGGVVQPGRSLRLSCAASGFTFSSYGMHWVRQAPGKGLEWVAVIWYETSNKYYADSVKGRFTISRDNSKNTLYLQMNNLRAEDTAVYYCARYGGNSGWYWYFDLWGRGTLVTVSS VL: DIQLTQSPSFLSASVGDRVTITCRASQGISSFLAWYQQKPGTAPKLLIYAASTLQSGVPSRFSGSGSGTEFTLTISSLQPEDFATYCCQQLNSYPFTFGQGTKLEIK | 0.101 nM | 7 fold | > 0.2 nM | 10 fold | 0.385 nM | 0.404 nM | 0.038 nM | 0.035 nM | –
3 | hab076e1 (antibody, V domains shown, as the VH of m15 (3503‐hab076‐VH); 3503‐hab076‐Vk(C2Y); the substitution is against the VL of m15 (Cys in FR3 of VL); position not given; Whole antibody, human IgG1 heavy chain constant region, human kappa light chain constant region; source: FreeStyle 293F, transiently co-transfected, purified from culture supernatant) VH: QVQLVESGGGVVQPGRSLRLSCAASGFTFSSYGMHWVRQAPGKGLEWVAVIWYETSNKYYADSVKGRFTISRDNSKNTLYLQMNSLRAEDTAVYYCARYGASSGWYWYFDLWGRGTLVTVSS VL: DIQLTQSPSFLSASVGDRVTITCRASQGISSYLAWYQQKPGKAPKLLIYAASTLQSGVPSRFSGSGSGTEFTLTISSLQPEDFATYYCQQLNSYPFTFGQGTKLEIK | 5.16 nM | 13 fold | 0.264 nM | 8 fold | 0.195 nM | 0.26 nM | 0.087 nM | 0.094 nM | –
4 | mAb076 (antibody, V domains shown, as the VH of m15; as the VL of m15; Human-murine chimeric antibody from H2L2 mice: human variable regions, rat constant regions; source: hybridoma cell culture supernatant, purified (Protein A)) VH: QVQLVESGGGVVQPGRSLRLSCAASGFTFSSYGMHWVRQAPGKGLEWVAVIWYETSNKYYADSVKGRFTISRDNSKNTLYLQMNSLRAEDTAVYYCARYGASSGWYWYFDLWGRGTLVTVSS VL: DIQLTQSPSFLSASVGDRVTITCRASQGISSYLAWYQQKPGKAPKLLIYAASTLQSGVPSRFSGSGSGTEFTLTISSLQPEDFATYCCQQLNSYPFTFGQGTKLEIK | > 0.27 nM | 8 fold | > 0.09 nM | 14 fold | 0.152 nM | 0.226 nM | 0.01 nM | 0.012 nM | –
5 | hab070 (antibody, V domains shown, 3503‐hab070‐VH; 3503‐hab070‐Vk; Whole antibody, human IgG1 heavy chain constant region, human kappa light chain constant region; source: FreeStyle 293F, transiently co-transfected, purified from culture supernatant) VH: QVQLVESGGGVVQPGRSLRLSCAASGFTFSSYGMHWVRQAPGKGLEWVAVIWYETSNKFYVDSVKGRFTISRDNSKNTLYLQMNSLRAEDTAVYYCARYGASSGWYWYFDLWGRGTLVTVSS VL: DIQLTQSPSFLSASVGDRVTITCRASQGISSFLAWYQQKPGKAPKLLIYAASTLQSGVPSRFSGSGSGTEFTLTISSLQPEDFATYCCQQLNSYPFTFGQGTKLEIK | 7.32 nM | 16 fold | 0.111 nM | 9 fold | 0.19 nM | 0.19 nM | 0.099 nM | 0.106 nM | 0.251 nM
6 | hab064 (antibody, V domains shown, 3503‐hab064‐VH; 3503‐hab064‐Vk; Whole antibody, human IgG1 heavy chain constant region, human kappa light chain constant region; source: FreeStyle 293F, transiently co-transfected, purified from culture supernatant) VH: QVQLVESGGGVVQPGRSLRLSCAASGFTFSSYGMHWVRQAPGKGLEWVAVIWYETSNKYYADSVKGRFTISRDNSKNTLYLQMNNLRAEDTAVYYCARYGGNSGWYWYFDLWGRGTLVTVSS VL: DIQLTQSPSFLSASVGDRVTITCRASQGISSFLAWYQQKPGTAPKLLIYAASTLQSGVPSRFSGSGSGTEFTLTISSLQPEDFATYCCQQLNSYPFTFGQGTKLEIK | 7.13 nM | 12 fold | 0.177 nM | 10 fold | 0.165 nM | 0.22 nM | 0.106 nM | 0.108 nM | 0.592 nM
